Columns and labels:
ARHGAP30, Q7Z6I6-2 [1] = target: ARHGAP30, Q7Z6I6-2
ARHGAP30, Q7Z6I6-2 [2] = target: ARHGAP30, Q7Z6I6-2; remark: listed apart in the source
rhg31_mouse Arhgap31 = rhg31_mouse Arhgap31 (UniProt A6X8Z5)
rhg31_mouse Arhgap31, sequence (A6X8Z5 whole entry): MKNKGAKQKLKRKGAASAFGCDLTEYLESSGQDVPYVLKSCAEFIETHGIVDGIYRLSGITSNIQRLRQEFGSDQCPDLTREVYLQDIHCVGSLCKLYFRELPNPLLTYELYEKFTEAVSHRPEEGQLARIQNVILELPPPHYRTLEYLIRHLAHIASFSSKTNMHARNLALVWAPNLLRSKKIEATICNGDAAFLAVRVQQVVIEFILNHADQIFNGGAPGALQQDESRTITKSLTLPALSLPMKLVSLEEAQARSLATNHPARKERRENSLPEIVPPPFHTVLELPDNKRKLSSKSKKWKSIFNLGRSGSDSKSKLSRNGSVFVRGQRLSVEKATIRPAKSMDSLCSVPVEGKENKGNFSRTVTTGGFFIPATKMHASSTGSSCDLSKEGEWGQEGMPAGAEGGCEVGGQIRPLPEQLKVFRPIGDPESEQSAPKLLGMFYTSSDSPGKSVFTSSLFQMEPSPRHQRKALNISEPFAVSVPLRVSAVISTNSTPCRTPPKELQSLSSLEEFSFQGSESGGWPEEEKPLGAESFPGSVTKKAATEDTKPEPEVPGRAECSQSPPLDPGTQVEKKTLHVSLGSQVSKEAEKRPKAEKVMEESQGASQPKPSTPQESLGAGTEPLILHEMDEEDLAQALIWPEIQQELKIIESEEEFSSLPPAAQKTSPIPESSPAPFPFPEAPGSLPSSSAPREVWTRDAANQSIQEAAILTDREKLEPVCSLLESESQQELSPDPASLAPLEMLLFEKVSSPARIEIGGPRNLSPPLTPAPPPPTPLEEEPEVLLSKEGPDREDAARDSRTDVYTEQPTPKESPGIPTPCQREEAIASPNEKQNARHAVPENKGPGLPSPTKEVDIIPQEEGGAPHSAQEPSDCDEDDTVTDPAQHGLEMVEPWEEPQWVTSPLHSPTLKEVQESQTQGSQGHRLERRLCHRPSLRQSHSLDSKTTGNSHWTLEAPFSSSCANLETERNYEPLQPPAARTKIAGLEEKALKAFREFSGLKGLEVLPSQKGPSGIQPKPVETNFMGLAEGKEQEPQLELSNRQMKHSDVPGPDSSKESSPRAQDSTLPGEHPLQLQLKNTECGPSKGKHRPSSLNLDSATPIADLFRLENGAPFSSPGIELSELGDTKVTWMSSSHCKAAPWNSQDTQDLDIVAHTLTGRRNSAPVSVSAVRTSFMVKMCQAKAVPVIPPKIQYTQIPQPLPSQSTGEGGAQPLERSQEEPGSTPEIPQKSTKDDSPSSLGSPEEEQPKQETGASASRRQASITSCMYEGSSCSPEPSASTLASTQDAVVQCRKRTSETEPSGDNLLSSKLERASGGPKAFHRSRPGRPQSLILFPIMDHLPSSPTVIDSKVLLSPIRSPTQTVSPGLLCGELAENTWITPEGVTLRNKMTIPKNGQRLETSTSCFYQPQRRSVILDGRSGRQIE

ARHGAP30, Q7Z6I6-2, sequence (Q7Z6I6 other isoform, or with tags, fused parts or gaps): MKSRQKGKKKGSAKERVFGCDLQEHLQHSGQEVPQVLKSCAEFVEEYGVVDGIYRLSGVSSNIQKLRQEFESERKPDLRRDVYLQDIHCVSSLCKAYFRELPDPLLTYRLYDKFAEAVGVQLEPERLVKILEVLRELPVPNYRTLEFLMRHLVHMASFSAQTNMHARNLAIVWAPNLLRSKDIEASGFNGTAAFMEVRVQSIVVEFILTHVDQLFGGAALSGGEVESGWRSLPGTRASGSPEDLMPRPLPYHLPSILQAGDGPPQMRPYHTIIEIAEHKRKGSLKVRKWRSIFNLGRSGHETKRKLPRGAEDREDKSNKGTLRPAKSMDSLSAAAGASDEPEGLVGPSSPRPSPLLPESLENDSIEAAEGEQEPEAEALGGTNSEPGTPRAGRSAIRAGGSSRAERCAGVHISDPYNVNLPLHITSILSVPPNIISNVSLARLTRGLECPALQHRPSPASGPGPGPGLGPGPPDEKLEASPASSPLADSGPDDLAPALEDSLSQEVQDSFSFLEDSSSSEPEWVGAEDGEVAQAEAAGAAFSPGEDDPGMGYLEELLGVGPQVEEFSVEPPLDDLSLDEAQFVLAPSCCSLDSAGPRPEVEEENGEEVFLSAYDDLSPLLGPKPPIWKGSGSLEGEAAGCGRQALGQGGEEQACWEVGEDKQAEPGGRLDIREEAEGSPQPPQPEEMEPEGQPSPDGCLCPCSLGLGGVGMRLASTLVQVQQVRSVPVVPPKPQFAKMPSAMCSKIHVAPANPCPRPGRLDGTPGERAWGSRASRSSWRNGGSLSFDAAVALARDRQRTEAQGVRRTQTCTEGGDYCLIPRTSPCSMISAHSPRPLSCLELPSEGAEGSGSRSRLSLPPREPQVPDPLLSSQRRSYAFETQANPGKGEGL
Rho-related GTP-binding protein RhoU (Homo sapiens), Q7L0Q8 F86C, sequence (Q7L0Q8 whole entry F86C): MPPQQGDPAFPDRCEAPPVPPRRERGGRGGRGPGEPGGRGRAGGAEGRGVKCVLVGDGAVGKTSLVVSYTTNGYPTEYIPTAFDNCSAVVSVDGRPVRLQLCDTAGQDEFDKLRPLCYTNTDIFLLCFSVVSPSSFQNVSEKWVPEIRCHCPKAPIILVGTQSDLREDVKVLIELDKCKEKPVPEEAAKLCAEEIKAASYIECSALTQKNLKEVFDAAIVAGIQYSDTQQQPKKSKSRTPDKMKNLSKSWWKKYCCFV

Substance	effect of a mutation on the interaction (ARHGAP30, Q7Z6I6-2 [1])	effect of a mutation on the interaction (ARHGAP30, Q7Z6I6-2 [2])	effect of a mutation on the interaction (rhg31_mouse Arhgap31)
Rho-related GTP-binding protein RhoU (Homo sapiens), Q7L0Q8 F83G	decreasing interaction strength	disrupting interaction strength	
Rho-related GTP-binding protein RhoU (Homo sapiens), Q7L0Q8 F86C		with no effect	
Rho-related GTP-binding protein RhoU (Homo sapiens), Q7L0Q8 P80G		with no effect	
Rho-related GTP-binding protein RhoU (Homo sapiens), Q7L0Q8 Q107L		with no effect	with no effect
Rho-related GTP-binding protein RhoU (Homo sapiens), Q7L0Q8 T63N		with no effect	disrupting interaction strength
